In paper PMC8042443:

Molecular target: GST fusion protein of the α1-syntrophin PDZ domain (UniProt Q61234)
Assay: pull-down; GST fusion proteins immobilised on beads, incubated 1 to 2 h at 4 °C with lysates of MEFs expressing HA-tagged DGKζ constructs; washed at least four times with ice-cold lysis buffer; bound DGKζ detected by anti-HA immunoblot; in some panels cells were treated with vehicle, 100 nM PMA, or 1 μM Gö6976 before PMA

Chain of HA-tagged DGKζ^M1 (all four serine residues in the MARCKS domain changed to aspartate) (Q13574 whole entry, the tested form may be a part): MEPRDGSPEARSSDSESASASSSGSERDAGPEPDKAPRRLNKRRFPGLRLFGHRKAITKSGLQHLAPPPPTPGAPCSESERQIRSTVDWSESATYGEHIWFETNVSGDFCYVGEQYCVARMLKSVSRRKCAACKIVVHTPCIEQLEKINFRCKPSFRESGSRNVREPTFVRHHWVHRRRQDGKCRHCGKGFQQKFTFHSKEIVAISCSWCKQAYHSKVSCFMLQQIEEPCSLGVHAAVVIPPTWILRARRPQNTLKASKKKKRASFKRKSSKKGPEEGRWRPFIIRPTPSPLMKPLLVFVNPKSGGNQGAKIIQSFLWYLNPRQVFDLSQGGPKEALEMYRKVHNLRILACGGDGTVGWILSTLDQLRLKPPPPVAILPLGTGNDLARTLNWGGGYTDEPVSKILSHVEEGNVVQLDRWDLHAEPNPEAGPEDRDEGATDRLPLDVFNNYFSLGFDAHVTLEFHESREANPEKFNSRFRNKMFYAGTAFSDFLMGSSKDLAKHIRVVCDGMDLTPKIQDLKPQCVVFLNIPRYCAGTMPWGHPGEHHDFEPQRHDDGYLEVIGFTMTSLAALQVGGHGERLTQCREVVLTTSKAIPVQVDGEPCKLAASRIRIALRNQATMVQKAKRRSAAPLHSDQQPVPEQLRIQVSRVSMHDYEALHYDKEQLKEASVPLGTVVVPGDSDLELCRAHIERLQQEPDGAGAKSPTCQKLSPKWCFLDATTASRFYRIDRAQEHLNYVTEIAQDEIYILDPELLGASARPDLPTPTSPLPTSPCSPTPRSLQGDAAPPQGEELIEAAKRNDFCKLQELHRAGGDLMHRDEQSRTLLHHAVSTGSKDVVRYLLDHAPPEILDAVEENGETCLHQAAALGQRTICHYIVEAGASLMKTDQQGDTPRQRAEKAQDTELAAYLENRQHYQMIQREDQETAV
Chain of GST fusion protein of the α1-syntrophin PDZ domain (Q61234 81-164): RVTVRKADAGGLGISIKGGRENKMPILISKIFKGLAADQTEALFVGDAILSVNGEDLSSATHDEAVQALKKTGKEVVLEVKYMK

**Q.** “HA-tagged DGKζ^M1 (all four serine residues in the MARCKS domain changed to aspartate) (from UniProt Q13574 1-928) (enzyme)” was tested. Which fold binding against DGKζ^WT did it give?
**A.** 2.5 fold
